Results as given in article PMC4363203.

Molecular target: centromere protein A (CENP-A), histone H3 variant (human (endogenous in HcoEpiC, HeLa and SW480)) (UniProt P49450)
Assay: co-IP; sequential native CENP-A IP of the chromatin left unbound by the CENP-B IP ('ectopic CENP-A'); SW480 cells; quantitative fluorescent western blot, background-corrected, input-adjusted ratio to the CENP-B IP

Chain of UniProt P49450 (P49450 whole entry, change not shown): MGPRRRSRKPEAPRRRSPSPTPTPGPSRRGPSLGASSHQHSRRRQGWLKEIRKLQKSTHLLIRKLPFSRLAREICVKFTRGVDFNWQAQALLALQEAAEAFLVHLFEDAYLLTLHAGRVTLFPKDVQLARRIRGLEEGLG

Row | H3 fold enrichment (Seq. CpA IP/CpB IP) [fold] | ATRX fold enrichment (Seq. CpA IP/CpB IP) [fold] | Substance
1 | 2.91 |  | canonical histone H3 (from UniProt P68431 1-136) (natural protein)
2 |  | 0.81 | ATRX, transcription-coupled histone chaperone (from UniProt P46100 1-2492) (natural protein)
